PMC3297495, “A rice transient assay system identifies a novel domain in NRR required for interaction with NH1/OsNPR1 and inhibition of NH1-mediated transcriptional activation” (Plant Methods, 2012)

How the values were obtained:
Gal4:rLG2 = Gal4:rLG2 (rice (Oryza sativa L)); assay: cell-based or functional assay
Gal4:rTGA2.1 = Gal4:rTGA2.1 (rice (Oryza sativa L)); assay: cell-based or functional assay

B1: YN:NH1 (natural protein, rice (Oryza sativa L), UniProt Q9FDY4 1-582, looked up)
chain: MEPPTSHVTNAFSDSDSASVEEGGADADADVEALRRLSDNLAAAFRSPEDFAFLADARIAVPGGGGGGGDLLVHRCVLSARSPFLRGVFARRAAAAAGGGGEDGGERLELRELLGGGGEEVEVGYEALRLVLDYLYSGRVGDLPKAACLCVDEDCAHVGCHPAVAFMAQVLFAASTFQVAELTNLFQRRLLDVLDKVEVDNLLLILSVANLCNKSCMKLLERCLDMVVRSNLDMITLEKSLPPDVIKQIIDARLSLGLISPENKGFPNKHVRRIHRALDSDDVELVRMLLTEGQTNLDDAFALHYAVEHCDSKITTELLDLALADVNHRNPRGYTVLHIAARRREPKIIVSLLTKGARPADVTFDGRKAVQISKRLTKQGDYFGVTEEGKPSPKDRLCIEILEQAERRDPQLGEASVSLAMAGESLRGRLLYLENRVALARIMFPMEARVAMDIAQVDGTLEFNLGSGANPPPERQRTTVDLNESPFIMKEEHLARMTALSKTVELGKRFFPRCSNVLDKIMDDETDPVSLGRDTSAEKRKRFHDLQDVLQKAFHEDKEENDRSGLSSSSSSTSIGAIRPRR
- UAS-Luc reporter (Luc/Gus) in rice protoplasts: Gal4:rLG2 with untagged NH1 (Ubi-NH1) against Gal4:rLG2 alone (Figure 1) (Gal4:rLG2): ~2 fold
- UAS-Luc reporter (Luc/Gus) in rice protoplasts: Gal4:rLG2 with untagged NH1 (Ubi-NH1) against Gal4:rLG2 alone (Figure 4A) (Gal4:rLG2): ~3 fold
- UAS-Luc reporter (Luc/Gus) in rice protoplasts: Gal4:rTGA2.1 with untagged NH1 (Ubi-NH1) against Gal4:rTGA2.1 alone (Gal4:rTGA2.1): ~2 fold
